Laboratory results from article PMC4653696 (The Journal of Biological Chemistry, 2015).

Legend:
[1] = biological target: T1, Shs1(E344C)-capped, otherwise Cys-less septin hetero-octamer (Shs1-Cdc12-Cdc3-Cdc10-Cdc10-Cdc3-Cdc12-Shs1) (S. cerevisiae, UniProt Q07657 1-551; P32468 1-407; P32457 1-520; P25342 1-322, C29V | C148S | E344C | C40A | C278S | C124V | C253V | C279V | C266S, Alexa Fluor 555 maleimide (donor) or Alexa Fluor 647 maleimide (acceptor) on C344 (E344C)); assay: FRET or BRET; as a1 but 50 nM donor (AF555)-labelled octamers; 45 mM KCl, 50 mM Tris-HCl pH 8.0; room temperature; apparent Kd; conditions: both partners purified
T1 construct: Cdc12, S. cerevisiae mitotic septin, Cys-less variant; Cdc3, S. cerevisiae mitotic septin, Cys-less variant; Cdc10, S. cerevisiae mitotic septin, Cys-less variant; Donor- and acceptor-labelled preparations are written as this one molecule; also called Shs1^AF555; Shs1^AF647; source: E. coli NiCo21 (DE3), subunits co-expressed, purified (IMAC, chitin-agarose flow-through, SEC), maleimide …
T1 sequence (Q07657 whole entry C29V/C148S/E344C, one chain of several): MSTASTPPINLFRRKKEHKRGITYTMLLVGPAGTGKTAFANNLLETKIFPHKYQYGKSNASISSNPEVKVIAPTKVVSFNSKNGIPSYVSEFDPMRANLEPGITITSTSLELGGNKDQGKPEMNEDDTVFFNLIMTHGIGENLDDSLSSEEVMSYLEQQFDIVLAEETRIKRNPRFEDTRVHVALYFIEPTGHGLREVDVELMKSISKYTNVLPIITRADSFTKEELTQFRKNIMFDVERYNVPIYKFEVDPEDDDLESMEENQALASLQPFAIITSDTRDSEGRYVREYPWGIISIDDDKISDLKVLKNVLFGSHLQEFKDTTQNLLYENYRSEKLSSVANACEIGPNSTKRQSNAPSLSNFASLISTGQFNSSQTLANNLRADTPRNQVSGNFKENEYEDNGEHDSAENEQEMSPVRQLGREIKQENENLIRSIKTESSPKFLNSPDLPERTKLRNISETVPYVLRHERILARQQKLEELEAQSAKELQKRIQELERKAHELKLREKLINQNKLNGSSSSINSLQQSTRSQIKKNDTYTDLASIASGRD

[2] = biological target: the molecule itself; assay: as above
[3] = biological target: T2, Shs1(Δ2–18/Δα0 E344C)-capped, otherwise Cys-less septin hetero-octamer (S. cerevisiae, UniProt Q07657 1-551; P32468 1-407; P32457 1-520; P25342 1-322, Δ2–18 | C29V | C148S | E344C | C40A | C278S | C124V | C253V | C279V | C266S, Alexa Fluor 555 maleimide (donor) on C344 (E344C)); assay: FRET or BRET; 25 nM donor (AF555)-labelled octamers titrated with acceptor (AF647)-labelled octamers, serial dilutions from 100 nM; 45 mM KCl, 50 mM Tris-HCl pH 8.0; room temperature, 1 h equilibration; triplicate; PCA and curve fit; apparent Kd of end-to-end association of rods; conditions: both partners purified
T2 construct: Cdc12, S. cerevisiae mitotic septin, Cys-less variant; Cdc3, S. cerevisiae mitotic septin, Cys-less variant; Cdc10, S. cerevisiae mitotic septin, Cys-less variant; also called Shs1 Δα0^AF555; Shs1(Δα0) complexes; source: E. coli NiCo21 (DE3), subunits co-expressed, purified (IMAC, chitin-agarose flow-through, SEC), maleimide dye-labelled; not shown: His6, N-terminal, kept; copies: 2 + 2 + 2 + 2
T2 sequence (Q07657 other isoform, or with tags, fused parts or gaps with the stated changes): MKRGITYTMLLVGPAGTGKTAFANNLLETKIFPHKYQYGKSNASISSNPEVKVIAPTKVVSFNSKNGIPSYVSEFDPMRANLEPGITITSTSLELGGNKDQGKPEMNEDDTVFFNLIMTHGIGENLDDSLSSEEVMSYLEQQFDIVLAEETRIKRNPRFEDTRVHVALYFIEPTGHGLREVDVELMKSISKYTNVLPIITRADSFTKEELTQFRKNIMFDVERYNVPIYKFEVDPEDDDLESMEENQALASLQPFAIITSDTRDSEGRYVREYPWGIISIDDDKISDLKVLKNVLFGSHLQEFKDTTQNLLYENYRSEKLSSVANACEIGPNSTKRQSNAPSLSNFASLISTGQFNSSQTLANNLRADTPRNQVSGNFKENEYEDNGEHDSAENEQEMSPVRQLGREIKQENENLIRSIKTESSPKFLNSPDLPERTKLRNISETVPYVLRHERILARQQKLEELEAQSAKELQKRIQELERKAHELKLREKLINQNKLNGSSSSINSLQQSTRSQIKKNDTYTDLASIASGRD

[4] = biological target: the molecule itself; assay: FRET or BRET; standard titrations of donor-labelled rods with acceptor-labelled rods in buffers of increasing KCl concentration (corrected FRET method); result at high ionic strength; apparent Kd
[5] = biological target: T1, Shs1(E344C)-capped, otherwise Cys-less …; assay: FRET or BRET; equimolar (1:1) donor- and acceptor-labelled octamers while varying ionic strength (KCl); PCA; EC50 of ionic strength and apparent Hill coefficient; conditions: both partners purified
[6] = biological target: the molecule itself; assay: as above
[7] = biological target: T1, Shs1(E344C)-capped, otherwise Cys-less …; assay: FRET or BRET; as a1 but 35 nM donor (AF555)-labelled octamers; 45 mM KCl, 50 mM Tris-HCl pH 8.0; room temperature; apparent Kd; conditions: both partners purified
[8] = biological target: the molecule itself; assay: as above
[9] = biological target: T1, Shs1(E344C)-capped, otherwise Cys-less …; assay: FRET or BRET; 25 nM donor (AF555)-labelled octamers titrated with acceptor (AF647)-labelled octamers, serial dilutions from 100 nM; 45 mM KCl, 50 mM Tris-HCl pH 8.0; room temperature, 1 h equilibration; triplicate; PCA and curve fit; apparent Kd of end-to-end association of rods; conditions: both partners purified
[10] = biological target: the molecule itself; assay: as above

B1: Cdc11(E294C)-capped, otherwise Cys-less septin hetero-octamer (Cdc11-Cdc12-Cdc3-Cdc10-Cdc10-Cdc3-Cdc12-Cdc11) (complex, S. cerevisiae)
chain 1: MSGIIDASSALRKRKHLKRGITFTVMIVGQSGSGRSTFINTLFGQQVVDTSTTILLPTDTSTEIDLQLREETVELEDDEGVKIQLNIIDTPGFGDSLDNSPSFEIISDYIRHQYDEILLEESRVRRNPRFKDGRVHAALYLINPTGHGLKEIDVEFIRQLGSLVNIIPVISKSDSLTRDELKLNKKLIMEDIDRWNLPIYNFPFDEDEISDEDYETNMYLRTLLPFAIIGSNEVYEMGGDVGTIRGRKYPWGILDVEDSSISDFVILRNALLISHLHDLKNYTHEILYERYRTCALSGESVAAESIRPNLTKLNGSSSSSTTTRRNTNPFKQSNNINNDVLNPASDMHGQSTGENNETYMTREEQIRLEEERLKAFEERVQQELLLKRQELLQREKELREIEARLEKEAKIKQEE
chain 2: MSAATATAAPVPPPVGISNLPNQRYKIVNEEGGTFTVMLAGESGLGKTTFINTLFQTVLKRADGQQHRQEPIRKTVEIDITRALLEEKHFELRVNVIDTPGFGDNVNNNKAWQPLVDFIDDQHDSYMRQEQQPYRTKKFDLRVHAVLYFIRPTGHGLKPIDIETMKRLSTRANLIPVIAKADTLTAQELQQFKSRIRQVIEAQEIRIFTPPLDADSKEDAKSGSNPDSAAVEHARQLIEAMPFAIVGSEKKFDNGQGTQVVARKYPWGLVEIENDSHSDFRKLRALLLRTYLLDLISTTQEMHYETYRRLRLEGHENTGEGNEDFTLPAIAPARKLSHNPRYKEEENALKKYFTDQVKAEEQRFRQWEQNIVNERIRLNGDLEEIQGKVKKLEEQVKSLQVKKSHLK
chain 3: MSLKEEQVSIKQDPEQEERQHDQFNDVQIKQESQDHDGVDSQYTNGTQNDDSERFEAAESDVKVEPGLGMGITSSQSEKGQVLPDQPEIKFIRRQINGYVGFANLPKQWHRRSIKNGFSFNLLVVGPDGIGKTTLMKTLFNNDDIEANLVKDYEEELANDQEEEEGQGEGHENQSQEQRHKVKIKSYESVIEENGVKLNLNVIDTEGFGDFLNNDQKSWDPIIKEIDSRFDQYLDAENKINRHSINDKRIHAVLYFIEPTGHYLKPLDLKFMQSVYEKVNLIPVIAKSDILTDEEILSFKKTIMNQLIQSNIELFKPPIYSNDDAENSHLSERLFSSLPYAVIGSNDIVENYSGNQVRGRSYPWGVIEVDNDNHSDFNLLKNLLIKQFMEELKERTSKILYENYRSSKLAKLGIKQDNSVFKEFDPISKQQEEKTLHEAKLAKLEIEMKTVFQQKVSEKEKKLQKSETELFARHKEMKEKLTKQLKALEDKKKQLELSINSASPNVNHSPVPTKKKGFLR
chain 4: MDPLSSVQPASYVGFDTITNQIEHRLLKKGFQFNIMVVGQSGLGKSTLINTLFASHLIDSATGDDISALPVTKTTEMKISTHTLVEDRVRLNINVIDTPGFGDFIDNSKAWEPIVKYIKEQHSQYLRKELTAQRERFITDTRVHAILYFLQPNGKELSRLDVEALKRLTEIANVIPVIGKSDTLTLDERTEFRELIQNEFEKYNFKIYPYDSEELTDEELELNRSVRSIIPFAVVGSENEIEINGETFRGRKTRWSAINVEDINQSDFVYLREFLIRTHLQDLIETTSYIHYEGFRARQLIALKENANSRSSAHMSSNAIQR
modifications: Alexa Fluor 555 maleimide (donor) or Alexa Fluor 647 maleimide (acceptor) on C294 (E294C); 0.7-0.8 dye molecules per subunit
notes: intact CTE (residues 303-415) restored; Cdc12, S. cerevisiae mitotic septin, Cys-less variant; Cdc3, S. cerevisiae mitotic septin, Cys-less variant; Cdc10, S. cerevisiae mitotic septin, Cys-less variant; The same preparation was labelled separately with donor (AF555) or acceptor (AF647); both are written as this one molecule; also called Cdc11^AF555; Cdc11^AF647; source: E. coli NiCo21 (DE3), …
- Kd [1]: 0.0275 µM
- Kd [2]: 0.0388 µM
- Kd [3]: 0.0406 µM
- Kd [4]: > 0.1 µM
- ionic strength (KCl) at EC50 of the FRET signal [5]: 198000 µM
- ionic strength (KCl) at EC50 of the FRET signal [6]: 181000 µM
- Kd [7]: 0.0213 µM
- Kd [8]: 0.0345 µM
- Kd [9]: 0.0108 µM
- Kd [10]: 0.0202 µM
